Earlier results as cited in PMC4340704.

Target: Cys106 (UniProt position 106, LIAAICAGPTA)
Details: reduced Cys106 thiol/thiolate implied; otherwise not stated

In the case of “DJ-1 (Parkinson disease protein 7) (Homo sapiens)”, the pKa is listed as 5.4.
